Measured values as given in patent US20240279318A1 (NANJING LEGEND BIOTECH, published 2024).

Columns and labels:
[1] = target: T1, AFP158/HLA-A*02:01 complex (human); test: SPR, fold vs AS170036 VL1VH1;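 further: crude scFv muteins immobilised on a sensor chip, peptide–MHC complex passed over at several concentrations, binding then buffer-driven dissociation, KD estimated from on- and off-rates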
T1 construct: flowed as analyte in SPR

[2] = target: T1, AFP158/HLA-A*02:01 complex; test: SPR, crude scFv captured, pMHC analyte;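 further: complex injected at several concentrations over the chip, association phase then running buffer for dissociation, KD derived from on- and off-rates computed from both curves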
Method: The experiment was carried out as follows. The crude scFv protein were captured onto the sensorchip. Different concentrations (320, 160, 40 nM) of AFP158/HLA-A*02:01 complex flowed over the sensorchip surface, and were allowed to bind the antibody fragment for 100 s followed by injection of the running buffer to allow dissociation of the complex. On-rate (kd) and off-rate (kd) were calculated based on association and dissociation curve, and were used to estimate the equilibrium dissociation constant (KD).
The crude scFv muteins were then subjected to SPR affinity measurement by the method mentioned above.

Affinity increase [1] [fold]	Kd [2] [nM]	koff [2] [s⁻¹]	kon [2] [M⁻¹ s⁻¹]	Binder
64.3	3.5	0.00079	230000	AS170036 VL1VH1-57K98F108A (scFv, also called 67-AS170036 VL1VH1-57K98F108A) scFv: QSALTQPRSVSGSPGQSVTISCAGTSSDVGSENYVSWYQQHPGKAPKLMIYQVNKRASGVPDRFSGSKSGNTASLTISGLQAEDEADYYCASYRSSDFNIVFGGGTKLTVLGGGGSGGGGSGGGGSEVQLVESGGGLVQPGGSLRLSCAASGFTFSSYAMSWVRQAPGKGLEWVSTINSGTGKPYYADSVKGRFTISRDNSKNTLYLQMNSLRAEDTAVYYCAKNFFDGSWFLAPPAMDYWGQGTLVTVSSHHHHHH
54.5	4.1	0.001	250000	AS170036 VL1VH1-57K98F108D (scFv, also called 68-AS170036 VL1VH1-57K98F108D) scFv: QSALTQPRSVSGSPGQSVTISCAGTSSDVGSENYVSWYQQHPGKAPKLMIYQVNKRASGVPDRFSGSKSGNTASLTISGLQAEDEADYYCASYRSSDFNIVFGGGTKLTVLGGGGSGGGGSGGGGSEVQLVESGGGLVQPGGSLRLSCAASGFTFSSYAMSWVRQAPGKGLEWVSTINSGTGKPYYADSVKGRFTISRDNSKNTLYLQMNSLRAEDTAVYYCAKNFFDGSWFLDPPAMDYWGQGTLVTVSSHHHHHH
56.3	4	0.00065	160000	AS170036 VL1VH1-57H98Q108S (scFv, also called 66-AS170036 VL1VH1-57H98Q108S) scFv: QSALTQPRSVSGSPGQSVTISCAGTSSDVGSENYVSWYQQHPGKAPKLMIYQVNKRASGVPDRFSGSKSGNTASLTISGLQAEDEADYYCASYRSSDQNIVFGGGTKLTVLGGGGSGGGGSGGGGSEVQLVESGGGLVQPGGSLRLSCAASGFTFSSYAMSWVRQAPGKGLEWVSTINSGTGHPYYADSVKGRFTISRDNSKNTLYLQMNSLRAEDTAVYYCAKNFFDGSWFLSPPAMDYWGQGTLVTVSSHHHHHH

The remaining lines, values behind:

Binder	Affinity increase [1] [fold]	Kd [2] [nM]	koff [2] [s⁻¹]	kon [2] [M⁻¹ s⁻¹]
AS170036 VL1VH1-57H98I108D (scFv, also called 62-AS170036 VL1VH1-57H98I108D) scFv: QSALTQPRSVSGSPGQSVTISCAGTSSDVGSENYVSWYQQHPGKAPKLMIYQVNKRASGVPDRFSGSKSGNTASLTISGLQAEDEADYYCASYRSSDINIVFGGGTKLTVLGGGGSGGGGSGGGGSEVQLVESGGGLVQPGGSLRLSCAASGFTFSSYAMSWVRQAPGKGLEWVSTINSGTGHPYYADSVKGRFTISRDNSKNTLYLQMNSLRAEDTAVYYCAKNFFDGSWFLDPPAMDYWGQGTLVTVSSHHHHHH	45.9	4.9	0.0012	250000
AS170036 VL1VH1-57H98I108S (scFv, also called 63-AS170036 VL1VH1-57H98I108S) scFv: QSALTQPRSVSGSPGQSVTISCAGTSSDVGSENYVSWYQQHPGKAPKLMIYQVNKRASGVPDRFSGSKSGNTASLTISGLQAEDEADYYCASYRSSDINIVFGGGTKLTVLGGGGSGGGGSGGGGSEVQLVESGGGLVQPGGSLRLSCAASGFTFSSYAMSWVRQAPGKGLEWVSTINSGTGHPYYADSVKGRFTISRDNSKNTLYLQMNSLRAEDTAVYYCAKNFFDGSWFLSPPAMDYWGQGTLVTVSSHHHHHH	26.4	8.5	0.0014	160000
AS170036 VL1VH1-57H98Q108D (scFv, also called 65-AS170036 VL1VH1-57H98Q108D) scFv: QSALTQPRSVSGSPGQSVTISCAGTSSDVGSENYVSWYQQHPGKAPKLMIYQVNKRASGVPDRFSGSKSGNTASLTISGLQAEDEADYYCASYRSSDQNIVFGGGTKLTVLGGGGSGGGGSGGGGSEVQLVESGGGLVQPGGSLRLSCAASGFTFSSYAMSWVRQAPGKGLEWVSTINSGTGHPYYADSVKGRFTISRDNSKNTLYLQMNSLRAEDTAVYYCAKNFFDGSWFLDPPAMDYWGQGTLVTVSSHHHHHH	90.7	2.5	0.00063	250000
AS170036 VL1VH1-57H98Q108A (scFv, also called 64-AS170036 VL1VH1-57H98Q108A) scFv: QSALTQPRSVSGSPGQSVTISCAGTSSDVGSENYVSWYQQHPGKAPKLMIYQVNKRASGVPDRFSGSKSGNTASLTISGLQAEDEADYYCASYRSSDQNIVFGGGTKLTVLGGGGSGGGGSGGGGSEVQLVESGGGLVQPGGSLRLSCAASGFTFSSYAMSWVRQAPGKGLEWVSTINSGTGHPYYADSVKGRFTISRDNSKNTLYLQMNSLRAEDTAVYYCAKNFFDGSWFLAPPAMDYWGQGTLVTVSSHHHHHH	128	1.8	0.00041	230000
